Measured values published in US8183228B2, “Anticoagulant antithrombotic dual inhibitors comprising a biotin label” (MSD OSS B.V. Netherlands, priority 2005, dated 2012).
Counter-ions that a name gives are not always drawn. Like-named read-outs stand apart in the source and are kept apart here.

What was measured:
[1] = Pharmacokinetics - neutralization experiment with avidin i.v. in rat; assay type: in vivo; settings: for level at time molar at 24 h: plasma, sc, before avidin, read-out: Plasma level T = 24 h; for level at time molar at 24 h / Plasma level T = 26 h / % reduction of plasma concentration: s.c. 500 nmol/kg; for Plasma level T = 26 h: 2 hours after avidin 10 mg/kg i.v. at t = 24 h; for % reduction of plasma concentration: within 2 hours after avidin 10 mg/kg i.v. at t = 24 h, sodium salt
Method: 3.2 Pharmacokinetics—Neutralization Experiment:
Rats were treated with compound 10, 12, or 27 at a dose of 100 nmol/kg s.c. At t=1 h, a blood sample was taken and 10 mg/kg of Avidin (from egg white, Sigma) was administered i.v. to the rats treated with compound 10 or 12. Blood was sampled at 0.5-1-3-6 and 23 hours subsequently. The blood was treated as described in the pharmacokinetic experiment and the concentration of the samples was determined by measuring the (residual) anti-Xa activity. (FIG. 8)
In a separate experiment compound 10, 17 or 26 was administered at a dose of 500 nmol/kg s.c. after which blood was collected at 24 hours. Then 10 mg/kg avidin was administered intravenously and blood was collected at 25 and 26 hours. (FIG. 9)

[2] = system: human platelet rich plasma; experiment: Inhibition of human platelet aggregation induced by ADP (PRP); assay type: cell-based
Method: The final concentration is 0.38% sodium citrate.
The optical density (OD620) is then measured at 620 nm. […] This is to verify the stability of the platelets (absence of spontaneous platelet aggregation). […] Between two measurements, the plate is shaking for 40 seconds at 1,000 rpm. Each test compound is investigated in at least 2 experiments using PRP from different volunteers.
(§1) The mean OD at each compound concentration (including vehicle) is calculated at t=0 min and t=10 min. The percentage inhibition at each concentration is calculated using the formula: […]

[3] = Pharmacokinetics after s.c. administration in rat (plasma anti-Xa activity); assay type: in vivo; settings: for Tmax / AUC(0-inf) / Cmax / half-life: male, Wistar, plasma, sc; for half-life: read-out: T½ eli (converted); for pharmacokinetic behavior in rats (comparison): within the variability of the experiment
Method: The pharmacokinetic properties of compounds 10, 12, 17 and 27 were studied in male Wistar rats of 300-400 gr. The rats were anaesthetized by inhalation of a mixture of O2N2O/isoflurane, after which the right jugular vein was cannulated. The next day rats were treated s.c. with doses of 100 or 500 nmol/kg. After s.c. administration, blood was sampled at several time intervals. Then the blood was centrifuged after which the plasma was siphoned off and stored at −20° C. until use. The concentration of the tested compound was measured amidolytically with S2222 (Chromogenix, Chromogenics Ltd, Molndal, Sweden) by determination of the anti-Xa activity based on the method of Teien and Lie in the obtained plasma samples against a calibration curve which was made of the stock solution of the tested compound itself. (Teien A N, Lie M. Evaluation of an amidolytic heparin assay method increased sensitivity by adding purified antithrombin III. Thromb. Res. 1977, 10: 399-410). The concentration in the samples was expressed in nmol/mL and the kinetic parameters were calculated with the noncompartment model of WinNonlin. (FIGS. 6 and 7)

washed human platelets = experiment: Inhibition of human platelet aggregation induced by TRAP (washed platelets); assay type: cell-based
Method: This aggregation can be determined by measuring the optical density of the WPL. The in vitro test described here is used to analyze the activity of a test compound to inhibit TRAP-induced aggregation of human platelets.
Between two measurements, the plate is shaking for 40 seconds at 1,000 rpm.

factor Xa = experiment: Anti-factor Xa activity in human plasma (amidolytic, S2222); assay type: biochemical; settings: against calibration curve of standard heparin
Method: 1.3 In Vitro Test for Determination of the Anti-Factor Xa Activity in Human Plasma
The anti-factor Xa activity of the tested compounds in human plasma were measured amidolytically with S2222 (Chromogenix, Chromogenics Ltd, Molndal, Sweden) using the method described by Teien and Lie. (Teien A N, Lie M. Evaluation of an amidolytic heparin assay method increased sensitivity by adding purified antithrombin III. Thromb. Res. 1977, 10: 399-410). The anti-Xa activity is expressed in U/μmol after comparison of the amidolytic activity with a calibration curve of standard heparin.

[4] = system: guinea pig platelet rich plasma; experiment: Inhibition of guinea pig platelet aggregation induced by ADP (PRP); assay type: cell-based; settings: for IC50: guinea pig PRP
Description: 1.1 In Vitro Test for Inhibition of Guinea Pig Platelet Aggregation Induced by ADP
Addition of adenosine diphosphate (ADP) to human or guinea pig platelet rich plasma (PRP) in vitro induces platelet aggregation. This aggregation can be assessed by measuring the change in optical density (OD) of the PRP. The following in vitro test was used to evaluate the test compound for interference with the ADP-induced aggregation of guinea pigs.
Platelet rich plasma (PRP): Free-flowing blood is taken from a healthy volunteer or a guinea pig and collected in 0.1 volume sodium citrate.2H2O, 3.8% in distilled H2O (w/v). The final concentration is 0.38% sodium citrate. The citrated blood is centrifuged at 1,600 N/kg (160 g, i.e., 900 rpm in a Hettich Rotanta/AP at room temperature. After 15 minutes centrifugation is discontinued with brake turned off, and the supernatant (=PRP) is collected. A fresh solution of ADP (analytical grade), 50 μM in 0.9% NaCl in MQ water, is used immediately.
The platelets in the supernatant (PRP) are counted using a Sysmex blood cell counter and the supernatant is diluted with PPP (platelet poor plasma) to obtain a PRP containing approximately 400,000±50,000 plt/mL. PRP should stabilize at room temperature for at least 20 min but not longer than 3 h.
150 μL PRP is pipetted into a well of the microplate. 30 μL test compound in a range of concentrations (7 concentrations per compound) or vehicle is added and the microplate is placed in the Labsystems iEMS reader MF at 37° C. The optical density (OD620) is then measured at 620 nm. After shaking for 2 minutes in the reader (1,000 rpm), the OD is measured for the second time. This is to verify the stability of the platelets (absence of spontaneous platelet aggregation). Then, 20 μL of 50 μM ADP solution is added and the OD is kinetically measured every minute for 14 minutes at 620. Between two measurements, the plate is shaking for 40 seconds at 1,000 rpm. Each test compound is investigated in at least 2 experiments using PRP from different volunteers.
as §1
The IC50 of the test compound is the concentration at which the ADP-induced platelet aggregation is reduced by 50%. For this, the percentage inhibition values are plotted against compound concentration and the IC50 is calculated using Graphpad Prism 3.0 (with variable slope).
As performed in above described protocol for ADP-induced platelet aggregation. […] Before inducing the guinea pig platelet aggregation by adding ADP, compound and avidin (from egg white, Sigma) in different concentrations were pre-incubated for 2 minutes at room temperature (FIGS. 1 and 2).

[5] = s.c. 100 nmol/kg, avidin 10 mg/kg i.v.

In the case of `CO[C@H]1O[C@H](COS(=O)(=O)O)[C@@H](O[C@@H]2O[C@@H](C(=O)O)[C@@H](O[C@H]3O[C@H](COS(=O)(=O)O)[C@@H](O[C@@H]4O[C@H](C(=O)O)[C@@H](O[C@H]5O[C@H](COS(=O)(=O)O)[C@@H](OCCOCCOCCOCCNC(=O)[C@H](CCCCNC(=O)CCCC[C@@H]6SC[C@@H]7NC(=O)N[C@@H]76)NC(=O)COCCOCCOCCOCCNC(=O)c6cccc(S(=O)(=O)N[C@@H](Cc7ccc(OCCCCC8CCNCC8)cc7)C(=O)O)c6)[C@H](OC)[C@H]5OC)[C@H](OC)[C@H]4OC)[C@H](OS(=O)(=O)O)[C@H]3OS(=O)(=O)O)[C@H](OC)[C@H]2OC)[C@H](OS(=O)(=O)O)[C@H]1OS(=O)(=O)O` [Compound 10, sodium salt], the level at time molar at 24 h [1] is reported as 733 ± 33 nM, the “Cl in comparison to compound 12” value [1, 5] is reported as “strongly increased” and the “neutralization by avidin of (residual) anti-Xa activity / pharmacokinetic behavior” value [1, 5] is reported as “can be neutralized”. The “overall AUCinf in comparison to compound 12” value [1, 5] was “strongly reduced”, the “overall T1/2 eli in comparison to compound 12” value [1, 5] was “strongly reduced” and the “Plasma level T = 26 h” value [1] was 185 ± 45 nM. The “% reduction of plasma concentration” value [1] was 75%, the IC50 [2] was 74 nM and the Cl ([3]; 500 nmol/kg, mean ± s.e.m.) was 0.11 ± 0.005 mL/min/kg. The Vz ([3]; 500 nmol/kg, mean ± s.e.m.) was 0.103 ± 0.009 L/kg, the Tmax ([3]; 500 nmol/kg) was 1.3 h and the AUC(0-inf) ([3]; 500 nmol/kg, mean ± s.e.m.) was 76.2 ± 2.8 µM·h. For the same compound, the Cmax ([3]; 500 nmol/kg, mean ± s.e.m.) was 4500 ± 400 nM, the half-life ([3]; 500 nmol/kg, mean ± s.e.m.) was 10.7 ± 1.5 h and the “pharmacokinetic behavior in rats (comparison)” value [3] was “same pharmacokinetic behavior”. For the same compound, the IC50 (washed human platelets) was 72 nM, the “Anti-Xa U/μmol Human plasma pH 7.4” value (factor Xa) was 927 U/μmol and the “concentration at which maximal inhibition of the guinea pig platelet aggregation is achieved” value [4] was 450 nM. It also gave an IC50 [4] of 225 nM.
With `CO[C@H]1O[C@H](COS(=O)(=O)O)[C@@H](O[C@@H]2O[C@@H](C(=O)O)[C@@H](O[C@H]3O[C@H](COS(=O)(=O)O)[C@@H](O[C@@H]4O[C@H](C(=O)O)[C@@H](O[C@H]5O[C@H](COS(=O)(=O)O)[C@@H](OCCOCCOCCOCCNC(=O)COCCOCCOCCOCCNC(=O)c6cccc(S(=O)(=O)N[C@@H](Cc7ccc(OCCCCC8CCNCC8)cc7)C(=O)O)c6)[C@H](OC)[C@H]5OC)[C@H](OC)[C@H]4OC)[C@H](OS(=O)(=O)O)[C@H]3OS(=O)(=O)O)[C@H](OC)[C@H]2OC)[C@H](OS(=O)(=O)O)[C@H]1OS(=O)(=O)O` [Compound 12, sodium salt, reference compound] the “neutralization by avidin of (residual) anti-Xa activity / pharmacokinetic behavior” value [1, 5] was “not affected”, the IC50 [2] was 92 nM and the Tmax ([3]; 100 nmol/kg) was 1.3 h. The AUC(0-inf) ([3]; 100 nmol/kg, mean ± s.e.m.) was 16.8 ± 0.5 µM·h, the Cmax ([3]; 100 nmol/kg, mean ± s.e.m.) was 1260 ± 20 nM and the half-life ([3]; 100 nmol/kg, mean ± s.e.m.) was 9.8 ± 0.4 h. For the same compound, the “pharmacokinetic behavior in rats (comparison)” value [3] was “same pharmacokinetic behavior”, the IC50 (washed human platelets) was 65 nM and the “Anti-Xa U/μmol Human plasma pH 7.4” value (factor Xa) was 1392 U/μmol. The “concentration at which maximal inhibition of the guinea pig platelet aggregation is achieved” value [4] was 225 nM and the IC50 [4] was 127 nM.
In the case of `CO[C@H]1O[C@H](COS(=O)(=O)O)[C@@H](O[C@@H]2O[C@@H](C(=O)O)[C@@H](O[C@H]3O[C@H](COS(=O)(=O)O)[C@@H](O[C@@H]4O[C@H](C(=O)O)[C@@H](O[C@H]5O[C@H](COS(=O)(=O)O)[C@@H](OCCOCCOCCOCCNC(=O)[C@H](CCCCNC(=O)C[C@H](NC(=O)CCCC[C@@H]6SC[C@@H]7NC(=O)N[C@@H]76)C(=O)O)NC(=O)COCCOCCOCCOCCNC(=O)c6cccc(S(=O)(=O)N[C@@H](Cc7ccc(OCCCCC8CCNCC8)cc7)C(=O)O)c6)[C@H](OC)[C@H]5OC)[C@H](OC)[C@H]4OC)[C@H](OS(=O)(=O)O)[C@H]3OS(=O)(=O)O)[C@H](OC)[C@H]2OC)[C@H](OS(=O)(=O)O)[C@H]1OS(=O)(=O)O` [Compound 17, sodium salt], the level at time molar at 24 h [1] is reported as 666 ± 93 nM, the “Plasma level T = 26 h” value [1] is reported as 112 ± 35 nM and the “% reduction of plasma concentration” value [1] is reported as 83%. It also gave an IC50 [2] of 49 nM, a Tmax ([3]; 100 nmol/kg) of 1.7 h and an AUC(0-inf) ([3]; 100 nmol/kg, mean ± s.e.m.) of 15.9 ± 0.9 µM·h. For the same compound, the Cmax ([3]; 100 nmol/kg, mean ± s.e.m.) was 1240 ± 10 nM, the half-life ([3]; 100 nmol/kg, mean ± s.e.m.) was 10.4 ± 0.5 h and the “pharmacokinetic behavior in rats (comparison)” value [3] was “same pharmacokinetic behavior”. For the same compound, the IC50 (washed human platelets) was 74 nM, the “Anti-Xa U/μmol Human plasma pH 7.4” value (factor Xa) was 1411 U/μmol and the IC50 [4] was 66 nM.
